Experimental data as given in CN113621063A (JIANGSU QUANXIN BIOMEDICAL CO LTD; JIANGSU SAIFUSHI …, dated 2021).
Values belong to the binder of their own block, whether it stands above or below them.

Tests used:
[1] = target: T1, 人IFNAR1 (on HEK Blue IFNα/β cells, Daudi cells, human whole blood cells) (human, UniProt P17181 28-557); test: cell-based or functional assay
T1 sequence (looked up): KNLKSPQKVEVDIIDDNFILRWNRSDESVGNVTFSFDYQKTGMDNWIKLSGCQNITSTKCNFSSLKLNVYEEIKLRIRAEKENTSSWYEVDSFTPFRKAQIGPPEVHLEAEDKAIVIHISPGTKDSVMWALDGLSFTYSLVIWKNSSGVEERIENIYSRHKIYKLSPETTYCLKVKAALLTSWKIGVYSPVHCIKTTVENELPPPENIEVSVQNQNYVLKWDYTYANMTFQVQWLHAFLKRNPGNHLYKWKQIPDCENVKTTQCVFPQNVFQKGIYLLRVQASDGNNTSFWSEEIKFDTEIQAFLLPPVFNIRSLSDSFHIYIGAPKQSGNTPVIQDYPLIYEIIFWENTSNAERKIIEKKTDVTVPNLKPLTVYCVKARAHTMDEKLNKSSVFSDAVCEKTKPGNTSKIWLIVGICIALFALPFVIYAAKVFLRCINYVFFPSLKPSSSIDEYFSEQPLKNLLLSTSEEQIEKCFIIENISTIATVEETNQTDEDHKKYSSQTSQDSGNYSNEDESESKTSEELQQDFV

[2] = target: T2, 人干扰素α受体1(IFNAR1) (human, UniProt P17181 28-436); test: SPR, Biacore T200, antibody captured on Protein A chip, antigen in flow, 25℃, 1:1 model, mean of three runs
T2 construct: Soluble antigen flowed over the captured antibody in the Biacore assay; also called 人IFNAR1; Human Interferon alpha/beta Receptor 1
T2 sequence: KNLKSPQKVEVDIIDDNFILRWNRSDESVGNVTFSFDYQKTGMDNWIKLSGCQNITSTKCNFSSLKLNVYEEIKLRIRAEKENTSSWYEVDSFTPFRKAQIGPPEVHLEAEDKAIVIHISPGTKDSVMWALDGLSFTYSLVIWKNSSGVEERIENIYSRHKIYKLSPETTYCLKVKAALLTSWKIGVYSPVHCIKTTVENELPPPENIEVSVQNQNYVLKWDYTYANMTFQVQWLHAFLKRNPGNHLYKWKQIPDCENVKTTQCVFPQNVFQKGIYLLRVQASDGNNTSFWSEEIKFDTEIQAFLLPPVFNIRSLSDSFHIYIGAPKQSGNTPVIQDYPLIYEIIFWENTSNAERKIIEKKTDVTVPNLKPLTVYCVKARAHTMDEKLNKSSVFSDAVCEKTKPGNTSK

- 抑制干扰素诱导的Daudi细胞增殖活性的EC50 [1]: 29.9 ng/mL
- 抑制干扰素诱导的HEK Blue IFNα/β细胞中1/2磷酸化活性的IC50 [1]: 5.23 ng/mL
- 抑制干扰素诱导的全血释放CXCL10/IP10活性的IC50 [1]: 698 ng/mL
- Kd [2]: 0.108 nM
- koff [2]: 3.76e-05 s⁻¹
- kon [2]: 347000 M⁻¹ s⁻¹
B1: QX006N(HZD1203-45-IgG4.1) (antibody, V domains shown)
VH: EVQLVESGGGLVQPGGSLRLSCAASGFSLSSYYMTWVRQAPGKGLEWVSVINVYGGTYYASWAKGRFTISRDNSKNTLYLQMNSLRAEDTAVYYCAREDVAVYMAIDLWGQGTLVTVSS
VL: AIQMTQSPSSLSASVGDRVTITCQASQSISNQLSWYQQKPGKAPKLLIYDASSLASGVPSRFSGSRSGTKFTLTISSLQPEDFATYYCLGIYGDGADDGIAFGGGTKVEIK
notes: Humanized rabbit clone 1203#; The human IgG1 constant region was replaced by human IgG4 (plasmid pHZDCH-362VH-Hu6-IgG4.1) and the light chain plasmid is pHZDCK (kappa); also called 抗人干扰素α受体1单克隆抗体QX006N; 重组人源化抗IFNAR1单克隆抗体

- 抑制干扰素诱导的Daudi细胞增殖活性的EC50 [1]: 31.7 ng/mL
- 抑制干扰素诱导的HEK Blue IFNα/β细胞中1/2磷酸化活性的IC50 [1]: 4.43 ng/mL
- 抑制干扰素诱导的全血释放CXCL10/IP10活性的IC50 [1]: 562 ng/mL
B2: Anifrolumab (antibody, V domains shown)
VH: EVQLVQSGAEVKKPGESLKISCKGSGYIFTNYWIAWVRQMPGKGLESMGIIYPGDSDIRYSPSFQGQVTISADKSITTAYLQWSSLKASDTAMYYCARHDIEGFDYWGRGTLVTVSS
VL: EIVLTQSPGTLSLSPGERATLSCRASQSVSSSFFAWYQQKPGQAPRLLIYGASSRATGIPDRLSGSGSGTDFTLTITRLEPEDFAVYYCQQYDSSAITFGQGTRLEIKR
